In patent US6858775B1, “Method for generating split, non-transferable genes that are able to express an active protein product” (New England Biolabs, Inc., priority 1999, dated 2005):

B1: ALSII: wild type E. coli acetolactate synthase II expressed from plasmid pALSII (protein)
chain: MNGAQWVVHALRAQGVNTVFGYPGGAIMPVYDALYDGGVEHLLCRHEQGAAMAAIGYARATGKTGVCIATSGPGATNLITGLADALLDSIPVVAITGQVSAPFIGTDAFQEVDVLGLSLACTKHSFLVQSLEELPRIMAEAFDVACSGRPGPVLVDIPKDIQLASGDLEPWFTTVENEVTFPHAEVEQARQMLAKAQKPMLYVGGGVGMAQAVPALREFLAATKMPATCTLKGLGAVEADYPYYLGMLGMHGTKAANFAVQECDLLIAVGARFDDRVTGKLNTFAPHASVIHMDIDPAEMNKLRQAHVALQGDLNALLPALQQPLNQYDWQQHCAQLRDEHSWRYDHPGDAIYAPLLLKQLSDRKPADCVVTTDVGQHQMWAAQHIAHTRPENFITSSGLGTMGFGLPAAVGAQVARPNDTVVCISGDGSFMMNVQELGTVKRKQLPLKIVLLDNQRLGMVRQWQQLFFQERYSETTLTDNPDFLMLASAFGIHGQHITRKDQVEAALDTMLNSDGPYLLHVSIDELENVWPLVPPGASNSEMLEKLS

Assays:
E. coli ER2744 [1] = experiment: Plate assay: rescue of E. coli ER2744 growth on valine or valine plus SM M9 plates; type: cell-based
Source text: E. coli ER2744 strain was employed as an in vivo model system for assessing the activity of the herbicide resistant E. coli ALSII gene, genetically modified by a linker insertion between Q327 and C328. E. coli ER2744 is derived from wild type E. coli K12 that contains the active ALSI and ALSIII enzymes, but not an active ALSII. ALSI and ALSIII are two isoforms of ALS genes in E. coli, which are crucial for the synthesis of valine, isoleucine and leucine (LaRossa and Schloss, J. Biol. Chem. 259:8753-8757 (1984)). Their activity is sensitive to the valine feedback inhibition. Therefore, by saturating the growth medium with 100 μg/ml valine (Sigma, St. Louis, Mo.), ALSI and III will be inhibited and the cells will stop growing. By introducing a recombinant herbicide resistant ALSII (ALSIIm) into E. coli cells, their growth will be rescued since ALSII is resistant to valine inhibition.
Plate assays were conducted to examine the capability of ALSIIm-14 to rescue E. coli ER2744 from valine (100 μg/ml) or valine plus herbicide SM (50 μg/ml, Supelco Park, Bellefonte, Pa.) saturated M9 minimum medium plate (Sambrook et al., (1989)). The M9 medium contains 2 μg/ml Thiamin, 2 mM MgSO4, 0.1 mM CaCl2, 0.2% glucose, 50 μg/ml of kanamycin, 100 μg/ml of ampicillin and 0.3 mM IPTG. For the plating assay, 100 μl of 25 mg/ml Valine with or without 50 μl of 25 μg/ml Sulfometuron methyl (SM) was spread on M9 selection plate. To assay bacterial growth, overnight cultures were streaked on M9 plates with or without valine and/or SM. The plates were incubated at various temperatures (as indicated in FIG. 7) for 48 to 72 hrs before the pictures were taken. On the plate supplemented with valine, cells expressing either ALSII, ALSIIm or ALSIIm-14 were able to grow (FIG. 7-a). However, when both valine and SM was applied, only strains expressing herbicide-resistant ALSIIm or ALSIIm-14 were able to grow (FIG. 7-b).
The next step was to determine whether the spliced product, as the result of trans-splicing of the ALSIIm (ALSIIm(N)—INn and ALSIIm(C)—INc) fusion proteins, would render E. coli ER2744 resistant to valine and SM. The first experiment was to test the effect of co-expression of ALSIIm(N)—INn and ALSIIm(C)—INc fusion proteins on cell growth in valine saturated M9 minimum medium. In a plating assay (see Section 4.), all transformed cells grew well on M9 medium in the absence of valine (FIG. 9A-a). […] (FIG. 9A-b, 9A-c) in the presence of valine. […] (FIG. 9A-c) or lower temperatures (data not shown) from a valine plate.

E. coli ER2744 [2] = experiment: Quantitative liquid culture assay (OD600) of E. coli ER2744 in valine / SM M9 medium; type: cell-based; details: 30° C.
Method: A quantitative liquid culture assay was performed to verify the results obtained from the plating assay. The liquid assay was performed as follows. A single colony was used to inoculate LB medium supplemented with kanamycin and ampicillin at 37° C. for 4 hours. Expression was induced by 0.3 mM IPTG and cell cultures were shifted to 30° C. for another 2 hrs. Then, 200 μL of equivalent OD600 8.0 was spun down, washed one time with M9 medium and resuspended in 200 μl M9 medium. 40 μl was aliquoted into 2 ml of appropriate culture medium and grown for 24-72 hours before its OD600 was measured. The concentration for valine is 100 μg/ml and for SM is 50 μg/ml. At 30° C., all transformed cells grew equally well in M9 minimum medium (FIG. 9B). […] To further compare the growth kinetics for trans-splicing mediated cell growth to wild type ALSII mediated cell growth, a time course study was performed (FIG. 9C).

Molecule | cell growth on M9 plate in the presence of valine at both 30° C. and 37° C. (E. coli ER2744 [1]; 100 μg/ml valine) | cell growth in valine saturated M9 liquid medium (E. coli ER2744 [2]; 100 μg/ml valine) | cell growth on M9 plate with valine and herbicide SM (E. coli ER2744 [1]; 100 μg/ml valine and 50 μg/ml SM, 30° C., 0.3 mM IPTG) | cell growth on M9 plate supplemented with valine (E. coli ER2744 [1]; 100 μg/ml valine, 30° C., 0.3 mM IPTG) | cell growth in valine M9 liquid medium containing SM (E. coli ER2744 [2]; 100 μg/ml valine, 50 μg/ml SM) | growth rate, time course study (E. coli ER2744 [2]; M9 medium with 100 μg/ml valine)
ALSIIm(N)—INn: fusion of ALSIIm N-terminal 327 residues and Ssp DnaE intein N-terminal 123 residues | did not grow | did not rescue cell growth |  |  |  | 
B1 | rescued the cells growth | allowed cells to grow | could not rescue cell growth | able to grow | no growth | fastest growth rate
